B1: S-adenosylmethionine lyase (SAMase) of bacteriophage T3, C-terminal His-tagged (enzyme, UniProt P07693 1-152, looked up)
chain: MIFTKEPAHVFYVLVSAFRSNLCDEVNMSRHRHMVSTLRAAPGLYGSVESTDLTGCYREAISSAPTEEKTVRVRCKDKAQALNVARLACNEWEQDCVLVYKSQTHTAGLVYAKGIDGYKAERLPGSFQEVPKGAPLQGCFTIDEFGRRWQVQ
B2: E. coli methionine S-adenosyltransferase (MAT), recombinant (enzyme)
chain: AKHLFTSESVSEGHPDKIADQISDAVLDAILEQDPKARVACETYVKTGMVLVGGEITTSAWVDIEEITRNTVREIGYVHSDMGFDANSCAVLSAIGKQSPDINQGVDRADPLEQGAGDQGLMFGYATNETDVLMPAPITYAHRLVQRQAEVRKNGTLPWLRPDAKSQVTFQYDDGKIVGIDAVVLSTQHSEEIDQKSLQEAVMEEIIKPILPAEWLTSATKFFINPTGRFVIGGPMGDCGLTGRKIIVDTYGGMARHGGGAFSGKDPSKVDRSAAYAARYVAKNIVAAGLADRCEIQVSYAIGVAEPTSIMVETFGTEKVPSEQLTLLVREFFDLRPYGLIQMLDLLHPIYKETAAYGHFGREHFPWEKTDKAQLLRDAAGLK

Key:
cryo-EM structure = target: the molecule itself; experiment: cryo-EM structure
[1] = target: B2; experiment: cryo-EM structure

## B1
cryo-EM structure
  stoichiometry N: 2
[1]
  binding result: binds

## B2
cryo-EM structure
  stoichiometry N: 4

Reference: publication doi:10.1101/2021.05.05.442785 (bioRxiv, 2021)
